{"source": "patent US20180000925", "proteins": {"B1": {"name": "CD45 (Enzo Life Sciences) (protein)", "chain": "SCNLDEQQELVERDDEKQLMNVEPIHADILLETYKRKIADEGRLFLAEFQSIPRVFSKFPIKEARKPFNQNKNRYVDILPYDYNRVELSEINGDAGSNYINASYIDGFKEPRKYIAAQGPRDETVDDFWRMIWEQKATVIVMVTRCEEGNRNKCAEYWPSMEEGTRAFGDVVVKINQHKRCPDYIIQKLNIVNKKEKATGREVTHIQFTSWPDHGVPEDPHLLLKLRRRVNAFSNFFSGPIVVHCSAGVGRTGTYIGIDAMLEGLEAENKVDVYGYVVKLRRQRCLMVQVEAQYILIHQALVEYNQFGETEVNLSELHPYLHNMKKRDPPSEPSPLEAEFQRLPSYRSWRTQHIGNQEENKSKNRNSNVIPYDYNRVPLKHELEMSKESEHDSDESSDDDSDSEEPSKYINASFIMSYWKPEVMIAAQGPLKETIGDFWQMIFQRKVKVIVMLTELKHGDQEICAQYWGEGKQTYGDIEVDLKDTDKSSTYTLRVFELRHSKRKDSRTVYQYQYTNWSVEQLPAEPKELISMIQVVKQKLPQKNSSEGNKHHKSTPLLIHCRDGSQQTGIFCALLNLLESAETEEVVDIFQVVKALRKARPGMVSTFEQYQFLYDVIASTYPAQNGQVKKNNHQEDKIEFDNEVDKVKQDANCVNPLGAPEKLPEAKEQAEGSEPTSGTEGPEHSVNGPASPALNQGS"}}, "molecular_target": "recombinant HCV E2 protein (eEnzyme)", "data": [{"protein": "B1", "values": [{"measurement": "dephosphorylation in an in vitro reaction (phosphotyrosine immunoblot)", "value": "dephosphorylated by CD45"}]}]}
